The results in this text go back to patent US20120058906A1.

The target of assay [1] is rHuman EGF R/Fc Chimera, CF (R&D Systems Cat#344-ER) (human) (UniProt P00533). As to the kind of experiment: ECL (MSD multi-spot), Fab 340 nM; blank 554.
Assay [2] has as its target rHuman HGF R/c-MET/Fc Chimera, CF (R&D Systems Cat#358-MT/CF) (human) (UniProt P08581). As to the kind of experiment: ECL (MSD multi-spot), Fab 340 nM; blank 554.
In assay [3] the target is rHuman IGF-1 sR (IGF-1 sR), CF (R&D Systems Cat#391-GR) (human) (UniProt P08069). In words: ECL (MSD multi-spot), Fab 340 nM; blank 554.
For assay [4], the target named is rHuman ErbB2/Fc Chimera, CF (R&D Systems Cat#1129-ER) (human) (UniProt P04626). In words: ECL (MSD multi-spot) screen, antigen spotted on plate, Fab at 0.34 uM; blank spot 356.
Assay [5] deals with rHuman Erythropoietin R/Fc Chimera, CF (R&D Systems Cat#963-ER) (human) (UniProt P19235). Described as above.
Sequence of rHuman Erythropoietin R/Fc Chimera, CF (R&D Systems Cat#963-ER) (human) (P19235 25-250, change not shown): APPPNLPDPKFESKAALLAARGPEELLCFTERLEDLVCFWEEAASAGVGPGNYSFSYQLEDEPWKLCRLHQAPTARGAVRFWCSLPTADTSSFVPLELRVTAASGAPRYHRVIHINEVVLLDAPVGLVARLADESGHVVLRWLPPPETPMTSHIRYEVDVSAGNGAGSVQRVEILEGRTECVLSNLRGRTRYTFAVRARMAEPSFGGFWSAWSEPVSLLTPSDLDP
Assay [6] deals with rHuman HGF R/c-MET/Fc Chimera, CF (R&D Systems Cat#358-MT/CF) (human) (UniProt P08581). The description is as above.
Assay [7] addresses rHuman IGF-1 sR, CF (R&D Systems Cat#391-GR) (human) (UniProt P08069). The assay is described as above.
Assay [8] addresses rHuman Notch-1/Fc Chimera, CF (R&D Systems Cat#3647-TK) (human) (UniProt P46531). The assay is described as above.
Assay [9] deals with rHuman P-Cadherin/Fc Chimera, CF (R&D Systems Cat#861-PC) (human) (UniProt P22223). The assay is described as above.

As to “Fab VH4-34_IGHD7-27*01_IGHJ4*01 & V4-6_IGLJ4*01”, the ECL signal was determined as 1210 ECL signal in [1]; 1240 ECL signal in assay [2]; 1040 ECL signal in assay [3]; 900 in [4]; 907 in assay [5]; 914 in assay [6]. Moreover, the ECL signal was found to be 871 in [7], 912 in assay [8] and 935 in assay [9].
